# From patent US20240010680A1 (XIAMEN UNIVERSITY, published 2024)
# B1: Peptide21 (peptide)
# peptide: YSYIQK
# notes: also called YSYIQK; third peptide
# B2: Peptide23 (peptide)
# peptide: YTYIQK
# notes: also called YTYIQK
# B3: Peptide12 (peptide)
# peptide: YKYKYL
# notes: also called YKYKYL; first peptide
# B4: Peptide13 (peptide)
# peptide: YRYRYL
# notes: also called YRYRYL; second peptide
# Target: T1, hACE2 purified protein (human (printed as hACE2), UniProt Q9BYF1 18-740)
# T1 construct: also called CM5-hACE2 chip
# T1 sequence (Q9BYF1 18-740 limits assumed): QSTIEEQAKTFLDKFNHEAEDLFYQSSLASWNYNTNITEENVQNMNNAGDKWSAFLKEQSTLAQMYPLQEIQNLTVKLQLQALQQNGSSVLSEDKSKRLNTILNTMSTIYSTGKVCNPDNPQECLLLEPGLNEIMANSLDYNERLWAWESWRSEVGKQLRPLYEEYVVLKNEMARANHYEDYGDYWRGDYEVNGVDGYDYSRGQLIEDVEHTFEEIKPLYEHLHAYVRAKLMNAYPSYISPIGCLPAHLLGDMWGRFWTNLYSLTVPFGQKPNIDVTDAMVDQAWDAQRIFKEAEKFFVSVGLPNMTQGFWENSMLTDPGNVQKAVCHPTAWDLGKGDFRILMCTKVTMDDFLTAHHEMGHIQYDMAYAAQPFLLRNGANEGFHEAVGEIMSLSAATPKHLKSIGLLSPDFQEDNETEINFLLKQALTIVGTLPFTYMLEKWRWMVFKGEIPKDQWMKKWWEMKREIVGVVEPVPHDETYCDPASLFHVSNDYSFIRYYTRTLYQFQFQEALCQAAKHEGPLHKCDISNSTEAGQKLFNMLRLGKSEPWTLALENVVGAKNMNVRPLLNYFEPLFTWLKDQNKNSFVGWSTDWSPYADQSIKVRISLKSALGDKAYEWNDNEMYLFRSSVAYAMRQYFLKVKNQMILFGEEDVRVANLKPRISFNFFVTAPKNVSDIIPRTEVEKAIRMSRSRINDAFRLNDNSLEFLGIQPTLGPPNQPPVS
# Experiment: SPR (Biacore T200), hACE2 amine-coupled to CM5 chip, peptide as analyte
# Protocol: Specific Steps: [0031] a. The GE Biacore T200 is started, the Series S Sensor Chip CM5 is embedded into the GE Biacore T200, the PBS is degassed to obtain a degassed PBS, and the degassed PBS is used throughout the experiment; [0032] b. The NHS, the EDC, the ethanolamine, and the hACE2 (1 mg/mL) are placed on a feeding plate of the GE Biacore T200 according to volumes indicated by the GE Biacore T200 using Eppendorf (EP) tubes in sufficient quantities; [0033] c. […] A mobile solution (the degassed PBS) is closed, a command window is closed, and a report is served to obtain a CM5-hACE2 chip;
# Specific Steps: [0038] a. Preparing different dilutions as samples for testing: the peptides in Table 1 to be tested at a concentration of 3 mmol/L (mM) are dissolved and sequentially diluted into different dilutions of 100 μmol/L (μM), 60 μM, 30 μM, 10 μM, 3 μM, 1 μM, 0.3 μM, and 0 using the PBS to obtain the samples. Each of the different dilutions is ensured to have a volume of no less than 400 μL and separately packaged on EP tubes. The samples are placed on a test plate of the GE Biacore T200, and the test plate is stuck in a test slot; [0039] b.
row,Binder,Kd [µM]
1,B1,36.8
2,B2,46.5
3,B3,21.4
4,B4,25.3
